{"source": "paper doi:10.1101/2025.06.28.662095", "key": {"[1]": {"biological_target": "MtSteAΔTM (M. tuberculosis SteA truncated soluble construct, residues 12-344) (Mycobacterium tuberculosis)", "experiment": "crystal structure"}, "[2]": {"biological_target": "MtSteAΔTM (M. tuberculosis SteA truncated soluble construct, residues 12-344) (Mycobacterium tuberculosis)", "experiment": "SEC-SLS"}}}
{"substance": "MtSteAΔTM (M. tuberculosis SteA truncated soluble construct, residues 12-344) (domain or fragment)", "values": [{"measurement": "stoichiometry N", "setting": "[1]", "value": 2}, {"measurement": "stoichiometry N", "setting": "[2]", "value": 2}]}
